What all share (experiment): SPR, antibody captured, C2 as analyte;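 also: biacore SPR at 37 °C, anti-C2 mAbs captured via goat anti-human IgG on CM5 chips, double-referenced sensorgrams fit to a 1:1 kinetic or steady-state model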
For orientation: In SPR one partner is held on a chip, and binding of the other changes the refractive index at the surface.

The target in one test is T1, human C2 N621A (human, UniProt P06681 21-752).
T1 sequence: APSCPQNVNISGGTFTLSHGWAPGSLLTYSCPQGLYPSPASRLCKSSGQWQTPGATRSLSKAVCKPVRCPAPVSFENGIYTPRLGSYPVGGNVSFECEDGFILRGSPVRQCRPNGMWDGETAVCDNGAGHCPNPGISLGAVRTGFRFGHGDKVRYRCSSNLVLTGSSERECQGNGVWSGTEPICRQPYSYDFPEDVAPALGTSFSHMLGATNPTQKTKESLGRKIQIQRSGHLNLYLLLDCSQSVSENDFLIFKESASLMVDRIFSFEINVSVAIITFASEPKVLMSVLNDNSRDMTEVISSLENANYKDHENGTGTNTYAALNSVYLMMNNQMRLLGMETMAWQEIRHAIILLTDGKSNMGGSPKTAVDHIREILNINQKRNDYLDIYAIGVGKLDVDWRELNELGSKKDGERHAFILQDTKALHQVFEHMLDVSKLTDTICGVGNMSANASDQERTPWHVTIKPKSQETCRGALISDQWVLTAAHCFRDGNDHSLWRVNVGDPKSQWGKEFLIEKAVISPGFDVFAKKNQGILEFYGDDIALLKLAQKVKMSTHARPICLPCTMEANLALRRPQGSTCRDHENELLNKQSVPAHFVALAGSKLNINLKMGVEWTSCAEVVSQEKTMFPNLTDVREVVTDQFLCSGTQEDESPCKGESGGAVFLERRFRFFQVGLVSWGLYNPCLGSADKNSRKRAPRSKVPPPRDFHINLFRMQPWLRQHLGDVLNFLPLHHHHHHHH

In a further test the target is T2, human C2 A709S (human, UniProt P06681 21-752).
T2 sequence: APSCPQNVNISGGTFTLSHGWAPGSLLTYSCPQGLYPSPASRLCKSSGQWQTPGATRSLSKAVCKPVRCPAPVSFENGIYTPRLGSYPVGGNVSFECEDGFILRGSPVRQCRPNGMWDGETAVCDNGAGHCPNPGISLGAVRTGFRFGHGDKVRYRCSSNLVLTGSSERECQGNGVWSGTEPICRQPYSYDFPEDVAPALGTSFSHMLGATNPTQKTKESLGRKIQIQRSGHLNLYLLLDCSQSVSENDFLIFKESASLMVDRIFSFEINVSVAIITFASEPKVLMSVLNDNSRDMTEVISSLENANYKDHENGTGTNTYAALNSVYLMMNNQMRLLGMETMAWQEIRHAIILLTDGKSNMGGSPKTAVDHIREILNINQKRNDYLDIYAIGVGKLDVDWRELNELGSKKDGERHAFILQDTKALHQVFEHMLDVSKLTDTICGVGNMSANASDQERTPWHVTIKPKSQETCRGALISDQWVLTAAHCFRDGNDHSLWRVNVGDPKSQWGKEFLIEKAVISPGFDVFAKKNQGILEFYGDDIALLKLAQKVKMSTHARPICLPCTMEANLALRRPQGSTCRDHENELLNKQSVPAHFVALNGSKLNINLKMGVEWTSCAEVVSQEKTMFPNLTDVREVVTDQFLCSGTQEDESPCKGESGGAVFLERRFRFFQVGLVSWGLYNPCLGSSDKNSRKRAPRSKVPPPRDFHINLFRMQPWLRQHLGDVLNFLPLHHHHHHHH

For the next test, the target named is T3, human C2 K487A (human, UniProt P06681 21-752).
T3 sequence: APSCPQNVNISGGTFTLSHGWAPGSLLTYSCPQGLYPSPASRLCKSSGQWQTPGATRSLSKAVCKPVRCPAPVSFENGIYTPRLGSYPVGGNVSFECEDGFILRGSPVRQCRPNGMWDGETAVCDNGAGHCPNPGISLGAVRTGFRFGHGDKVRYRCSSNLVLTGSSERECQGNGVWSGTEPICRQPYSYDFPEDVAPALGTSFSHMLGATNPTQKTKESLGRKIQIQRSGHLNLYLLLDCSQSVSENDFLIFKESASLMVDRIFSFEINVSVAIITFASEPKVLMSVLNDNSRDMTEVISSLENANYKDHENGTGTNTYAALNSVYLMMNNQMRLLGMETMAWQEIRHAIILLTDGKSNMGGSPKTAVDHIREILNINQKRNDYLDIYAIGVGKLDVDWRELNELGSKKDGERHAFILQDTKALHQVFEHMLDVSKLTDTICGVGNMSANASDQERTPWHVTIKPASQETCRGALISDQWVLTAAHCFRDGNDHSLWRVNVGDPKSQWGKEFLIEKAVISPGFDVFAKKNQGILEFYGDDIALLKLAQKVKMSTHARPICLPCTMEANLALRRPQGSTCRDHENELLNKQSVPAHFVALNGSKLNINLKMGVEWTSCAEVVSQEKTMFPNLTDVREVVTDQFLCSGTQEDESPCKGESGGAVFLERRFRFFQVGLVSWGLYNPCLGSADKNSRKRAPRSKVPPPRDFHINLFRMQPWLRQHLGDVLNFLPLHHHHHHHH

The target of another test is T4, human C2 Y702A (human, UniProt P06681 21-752).
T4 sequence: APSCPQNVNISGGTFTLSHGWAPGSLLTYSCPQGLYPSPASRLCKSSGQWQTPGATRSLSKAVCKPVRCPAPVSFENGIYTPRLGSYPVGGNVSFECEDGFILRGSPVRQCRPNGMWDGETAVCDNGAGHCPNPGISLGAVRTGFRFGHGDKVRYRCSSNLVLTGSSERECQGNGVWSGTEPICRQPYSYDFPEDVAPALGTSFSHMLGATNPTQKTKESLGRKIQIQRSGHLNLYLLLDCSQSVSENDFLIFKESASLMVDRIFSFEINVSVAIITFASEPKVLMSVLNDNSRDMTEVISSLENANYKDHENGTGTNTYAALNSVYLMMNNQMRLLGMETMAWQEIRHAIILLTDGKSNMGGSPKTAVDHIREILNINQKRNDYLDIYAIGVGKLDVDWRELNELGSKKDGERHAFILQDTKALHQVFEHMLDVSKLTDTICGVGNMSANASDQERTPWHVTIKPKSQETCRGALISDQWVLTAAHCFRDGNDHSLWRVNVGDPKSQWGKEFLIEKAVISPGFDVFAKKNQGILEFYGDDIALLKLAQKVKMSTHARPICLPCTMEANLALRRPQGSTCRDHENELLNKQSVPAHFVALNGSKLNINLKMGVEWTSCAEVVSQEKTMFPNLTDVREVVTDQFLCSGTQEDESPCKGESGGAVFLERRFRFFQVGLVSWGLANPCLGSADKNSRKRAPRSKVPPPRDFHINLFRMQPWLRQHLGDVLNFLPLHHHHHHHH

B1: RF16-226 (antibody, human IgG4 S228P, lambda)
heavy: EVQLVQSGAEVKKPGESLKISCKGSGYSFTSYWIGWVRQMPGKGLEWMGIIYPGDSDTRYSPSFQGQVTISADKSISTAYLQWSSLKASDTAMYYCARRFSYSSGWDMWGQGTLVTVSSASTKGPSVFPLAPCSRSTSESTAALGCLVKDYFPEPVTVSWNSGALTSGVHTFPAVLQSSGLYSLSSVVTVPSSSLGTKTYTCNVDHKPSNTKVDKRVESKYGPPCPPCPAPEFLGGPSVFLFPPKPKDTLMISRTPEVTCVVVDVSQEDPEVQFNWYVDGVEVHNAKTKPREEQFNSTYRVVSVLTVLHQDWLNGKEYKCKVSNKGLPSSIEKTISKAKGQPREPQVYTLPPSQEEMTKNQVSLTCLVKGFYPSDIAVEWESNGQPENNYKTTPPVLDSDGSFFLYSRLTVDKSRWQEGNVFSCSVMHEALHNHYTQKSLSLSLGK
light: SYELTQPPSVSVSPGQTARITCSGDALTSKYVAWYQQKSGLAPLLVIYEDTRRPSGIPAKFSGSSSGSVATLTISGAHGDDEADYYCYSTDASGHQRVFGGGTKLTVLSQPKAAPSVTLFPPSSEELQANKATLVCLISDFYPGAVTVAWKADGSPVKAGVETTKPSKQSNNKYAASSYLSLTPEQWKSHRSYSCQVTHEGSTVEKTVAPTECS
notes: pH-dependent anti-C2 antibody from a phage display library; also called WT
For orientation: Kd means a measure of binding affinity in units of concentration. As for B1, the Kd with human C2 N621A came to 51.5 nM; with human C2 A709S, 127 nM; with human C2 K487A, 93 nM; with human C2 Y702A it was 106 nM.
